Values belong to the binder of their own block, whether it stands above or below them.
Key:
Assay in all cases: two-hybrid library CCNG1;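 also: natural log of median RNA to DNA barcode read ratio; higher means stronger binding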
4H477-bA = target: T1, 4H477-bA
T1 chain: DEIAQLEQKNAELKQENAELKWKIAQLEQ

4H2717-bA = target: T2, 4H2717-bA
T2 chain: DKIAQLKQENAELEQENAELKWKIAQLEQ

4H40-bA = target: T3, 4H40-bA
T3 chain: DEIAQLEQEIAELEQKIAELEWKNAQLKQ

4H2503-bA = target: T4, 4H2503-bA
T4 chain: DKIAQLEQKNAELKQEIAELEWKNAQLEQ

4H319-bA = target: T5, 4H319-bA
T5 chain: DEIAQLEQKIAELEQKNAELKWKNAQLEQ

4H741-bA = target: T6, 4H741-bA
T6 chain: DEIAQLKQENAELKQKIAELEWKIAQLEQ

4H492-bA = target: T7, 4H492-bA
T7 chain: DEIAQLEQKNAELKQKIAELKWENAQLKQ

4H3277-bA = target: T8, 4H3277-bA
T8 chain: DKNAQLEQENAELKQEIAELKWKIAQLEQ

4H2143-bA = target: T9, 4H2143-bA
T9 chain: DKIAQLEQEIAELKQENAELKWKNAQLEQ

4H2438-bA = target: T10, 4H2438-bA
T10 chain: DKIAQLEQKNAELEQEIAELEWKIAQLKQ

4H2692-bA = target: T11, 4H2692-bA
T11 chain: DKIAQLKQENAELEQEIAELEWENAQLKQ

4H2223-bA = target: T12, 4H2223-bA
T12 chain: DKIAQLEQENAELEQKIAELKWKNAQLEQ

4H2473-bA = target: T13, 4H2473-bA
T13 chain: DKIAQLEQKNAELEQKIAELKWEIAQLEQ

4H182-bA = target: T14, 4H182-bA
T14 chain: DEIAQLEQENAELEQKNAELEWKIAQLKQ

4H2134-bA = target: T15, 4H2134-bA
T15 chain: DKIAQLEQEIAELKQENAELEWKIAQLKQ

4H2588-bA = target: T16, 4H2588-bA
T16 chain: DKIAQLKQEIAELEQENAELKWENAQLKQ

4H348-bA = target: T17, 4H348-bA
T17 chain: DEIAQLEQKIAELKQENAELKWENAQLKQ

4H2915-bA = target: T18, 4H2915-bA
T18 chain: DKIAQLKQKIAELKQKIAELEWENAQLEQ

4H2839-bA = target: T19, 4H2839-bA
T19 chain: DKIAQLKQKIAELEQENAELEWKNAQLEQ

4H3057-bA = target: T20, 4H3057-bA
T20 chain: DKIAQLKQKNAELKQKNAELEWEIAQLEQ

O1-bP = target: T21, O1-bP
T21 chain: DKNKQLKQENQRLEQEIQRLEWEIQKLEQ

4H932-bH = target: T22, 4H932-bH
T22 chain: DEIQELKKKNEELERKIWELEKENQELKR

4H949-bH = target: T23, 4H949-bH
T23 chain: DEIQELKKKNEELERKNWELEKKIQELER

interaction score (4H477-bA): -0.804
interaction score (4H2717-bA): 0.261
interaction score (4H40-bA): -1.06
interaction score (4H2503-bA): -0.357
interaction score (4H319-bA): -0.41
interaction score (4H741-bA): -0.573
interaction score (4H492-bA): -0.651
interaction score (4H3277-bA): -0.0929
interaction score (4H2143-bA): -0.647
interaction score (4H2438-bA): -0.622
interaction score (4H2692-bA): 0.136
interaction score (4H2223-bA): -0.693
interaction score (4H2473-bA): -0.132
interaction score (4H182-bA): -0.0793
interaction score (4H2134-bA): -0.497
interaction score (4H2588-bA): 0.365
interaction score (4H348-bA): -1.35
interaction score (4H2915-bA): 0.668
interaction score (4H2839-bA): 0.49
interaction score (4H3057-bA): 2.13
Binder: DEIAQLEQENAELEQKNAELEWKIAQLKQ [4H182-bA]

interaction score (O1-bP): -1.96
interaction score (4H932-bH): -0.509
interaction score (4H949-bH): -0.517
Binder: DEIQELKKKNEELERKIWELEKENQELKR [4H932-bH]
